# Results from patent US9347884B2, “Microfluidic device with direct sample heating via electromagnetic radiation” (UCL BUSINESS PLC, priority 2009, dated 2016).
# Read-outs that look alike come from different tables or passages of the source.
# Tests used:
# [1] = Equilibrium denaturation of FKBP-12 proteins by GdnHCl, capillary method; type: physicochemical
# Protocol: Samples were measured and averaged for 100 laser pulses. […] Error bars shown are standard deviations.
# (§1) The experimental detail was as set out below:
# (§2) Equilibrium denaturation of wild-type FKBP-12: 50 μl, of FKBP-12 stock (50 μM FKBP-12, 5 mM DTT, 50 mM Tris.HCl, pH 7.5) was added to each well of a UV transparent Costar (Corning, Lowell, Mass., USA) 96-well plate. […] Samples were sealed and equilibrated for 17 hours at 22° C. prior to measurement of intrinsic protein fluorescence in a Fluostar Optima plate reader as above. The same samples were then used to measure intrinsic protein fluorescence in the micro-capillary device for a direct comparison.
# (§3) Data for the observed fluorescence (Fobs) as a function of denaturant concentration ([D]) were fit using SigmaPlot 10.0 (Systat Software, Hounslow, UK) to the equation below: […]
# (§4) The free energy of protein denaturation in water ΔGH2O was calculated as mGC1/2, using the fitted mG, where we set the denaturant dependent free energy (ΔGobs) to zero in the equation below when [D] is equal to C1/2. ΔGobs=ΔGH2O+mG[D] Values of ΔGH2O were used to calculate the change in free energy of the mutant or ligand bound protein, ΔΔGX-WT, relative to un-liganded wild-type FKBP-12. The change in free energy of unfolding upon ligand binding, ΔΔGbinding, was calculated for each mutant from the values of ΔGH2O for liganded FKBP-12 relative to ΔGH2O for non-liganded FKBP-12.
# [2] = Equilibrium denaturation of FKBP-12 proteins by GdnHCl, microplate method; type: physicochemical
# Protocol: as §1, §2, §3, §4
# [3] = Example 1 GdHCl denaturation of FKBP-12, capillary intrinsic fluorescence; type: physicochemical; conditions: 2 μM FKBP-12, GdHCl, 1 mM DTT, 50 mM Tris.HCl pH 7.5, 20° C.
# Description: The configuration comprises a laser 5 (QUV266-02, Crystalaser, Reno, Nev.) of wavelength 266 nm, 5 mW, pulsed at 1 kHz; a bandpass filter (newport), at 266 nm 15; a converging lens (SPX010AR.10, Newport) 16; a 100 μm internal diameter capillary (FS-110, Upchurch™) 1; and a photo multiplier tube (R1166PMT, Hamamatsu, Japan) 7; linked to a data acquisition system consisting of a PC expansion card (PXI-5124, National Instruments), for capture and analysis of the data in Labview (National Instruments). […] Samples were measured and averaged for 100 laser pulses. […] A fluorescence relative intensity of 1500 at a concentration of 0 mg ml^−1 of BSA corresponds to the background signal of the setup generated by excitation radiation.
# The denaturation experiment was repeated for another protein using 2 μM FKBP-12. […] The stability was measured using the denaturant guanidinium hydrochloride (GdHCl) in 1 mM dithiothreitol (DTT), 50 mM Tris.HCl at pH 7.5 and at 20° C., using a flow rate of 10 μL/min through the capillary. The fluorescence of FKBP with various concentrations of GdHCl (from 0M to 3M) was measured. […] C1/2 represents the denaturant concentration at which half of the protein is in the unfolded state.
# [4] = Literature, cited from earlier work
# [5] = GdnHCl, 50 mM Tris.HCl pH 7.5, 1 mM DTT
# [6] = GdnHCl, mG from each independent curve fit
# [7] = GdnHCl, using average mG values
# [8] = relative to wild-type FKBP-12 without rapamycin, from ΔGH2O
substance,measurement,setting,value
FKBP-12 wt: Wild-type FKBP-12 expressed and purified from a GST-FKBP fusion gene in E. coli BL21 cells,mG,[1]; GdnHCl,5.4 ± 0.7 kcal mol^−1 M^−1
same,C1/2 (transition mid-point),[1]; [5],0.74 ± 0.02 M
same,ΔGH2O,[1]; [6],4.03 ± 0.5 kcal/mol
same,ΔG<mG>,[1]; [7],3.84 ± 0.3 kcal/mol
same,ΔΔGX-WT,[1]; [8],0 kcal/mol
same,mG,[2]; GdnHCl,6.6 ± 0.4 kcal mol^−1 M^−1
same,C1/2 (transition mid-point),[2]; [5],0.77 ± 0.01 M
same,ΔGH2O,[2]; [6],5.05 ± 0.3 kcal/mol
same,ΔG<mG>,[2]; [7],4.72 ± 0.3 kcal/mol
same,ΔΔGX-WT,[2]; [8],0 kcal/mol
same,"mid-point of denaturation (C1/2), absence of rapamycin",[3],0.65 M
same,C1/2 (transition mid-point),[4]; GdnHCl,0.78 ± 0.005 M
same,mG,[4]; GdnHCl,6.6 ± 0.3 kcal mol^−1 M^−1
same,ΔGH2O,[4]; GdnHCl,5.13 ± 0.2 kcal/mol
same,ΔΔGX-WT,[4]; relative to wild-type FKBP-12 without rapamycin,0 kcal/mol
